Test results taken from a protein production outcome set (Wang et al. 2014).

Assay: label from the status in PepcDB records
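Note: failed if final PepcDB status was selected cloned or expressed and not failed if soluble or beyond.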

Sequence	protein production
MGKDFKSLVTRCIYVGKMNDNAKKLKIATEELKDLGNNVMKRVKLCEEQQQMKRLDKVQTWLRQADTVIKEAEEYFLMSSSSSSSGLISSSHKMEKKICKKLKEVQEIKSRGMFEVVAESTGGIGGGAGGGLTIKDSDEQTIGLEAVSGLVWRCLTMENTGIIGLYGVEGVGKTTVLTQVNNRLLQQKANGFDFVLWVFVSKNLNLQKIQDTIREKIGFLDRTWTSKSEEEKAAKIFEILSKRRFALFLDDVWEKVDLVKAGVPPPDAQNRSKIVFTTCSEEVCKEMSAQTKIKVEKLAWERAWDLFKKNVGEDTIKSHPDIAKVAQEVAARCDGLPLALVTIGRAMASKKTPQEWRDALYILSNSPPNFSGQIS	failed
MGKDLAECYLGLGSTFRTLGEYRKAEAVLANGVKQFPNHQALRVFYAMVLYNLGRYEQGVELLLKIIAETSDDETIQSYKQAILFYADKLLEHHHHHH	failed
MGKENSKVVVLDFWASPYAMRTKVALREKGVEFEVQEEDLWNKSELLLKSNPVHKKVPVLIHNNTPISESLIQVQYIDETWTDAASFLPSDPQSRATARFWADYADKTISFEGGRKIWGNKKGEEQEKGKKEFLESLKVLEAELGDKSYFGGETFGYVDITLVPFYSWFYALEKCGDFSVEAECPKIVAWGKRCVERNSVAATLPESEKVYQQVLKLRQIFGVE	failed
MGKGVAFFSGGKDGLYALYLAEEMGIEVPYLLVLKTSIGLSPHWENLDALKTLAKVMEREILTFDMRRGSKALAEFISSLDVDYLIAGDVYLEDHILWVKSLAEEANVKPLEPLWGRNTRKLAEEMLREGFNWAIIAVDKRKLGKEWLGYTFRSIEDLENFLRANPNVDPLGEVGEFHTVVLNSPLFALNFELKVESIEEDERYWWLRFELREVEKWNLNS	failed
MGKNIPSSLDLYPIIHNYLQEDDEILDIGCGSGKISLELASLGYSVTGIDINSEAIRLAETAARSPGLNQKTGGKAEFKVENASSLSFHDSSFDFAVMQAFLTSVPDPKERSRIIKEVFRVLKPGAYLYLVEFGQNWHLKLYRKRYLHDFPITKEEGSFLARDPETGETEFIAHHFTEKELVFLLTDCRFEIDYFRVKELETRTGNKILGFVIIAQKLLEHHHHHH	not failed
MGKRRFQKAKETSSVAEASSPTESQATRRRRGRPRKNLENPEDFKKEESEEDEDYEEYEDEEEEDEEAEVVINREKLKKKVRSSSGSMEKEQKMKHEELEEEEKPEMTVKVVVPPPSSRRSRRKSTPVKSW	failed
MGKYFFSETEIKNSWDLVLTAFWQRYPNPFSSHVLTEDVLFRKVTSENLLVSRRLFTKTNRLPRWAERIFPGRRSVYIIEDSVVDLSNRSLTTMTWNVNHAKLMRVVERCVFTGEQDRPVWTHITRQAWISSGVFGLSRPIQEFGLARFRSNQLKAMKGMEHAISNLQKASSSCHGESAEKPKNVNPAAKNAQKPQQYI	failed
MGLFAKITTASDPRTARIAGILLMLLAMLAFSFADAAGKTVVAIYSVGQLLVLRALAGLLVLSPLIWRQRKAFLQLERPGLQLARTLIAACEVAVFYLATAYLPLADVITFYLASSLFVSVGAALFLGETIDRPRGIAIVVGFVGVLIALQPSTQTMSWPALIAILASVLFAGLLLLTRFLRQTPDMVLASQQFAGTLLLGLVLAPSGWITPSATDLVWFAISGAVSAVGLLCVNRSLRLAPASVVVPYQYTMIIFAAAFGWLLFGDVPSRATVAGVAIIIAAGLYLGWRERSTSRPPVGG	failed
MGLGVACSSSQPPGSTTEANGPAVSSGPSLFLLHTTPADGLVLHDARTDESRTLAAGATAKPARAVSPSGRHLAFSYATADSSHLTLLDLTTQQAHRVHAAAGTSVAYSLAWHPNQERLAVGYYRPTDDGGRGPGGLQVVTPDGTTRDVGCSSVREVLHWLPDGSLAARTDDNLYVVDAGDCATQASLDIRRMHHLRYAPTGQQMAYIYRELEYDRDRGEYVPDSSFVLSGPDGTNPETLFGNERHARHHRWAPETNEVALDVRVEASGHRQVVVYDGSRPTFLVSPDQTTADQVHPRWSPSGNRIAFTLRSDASSQAAVRVKGQTRRLGRVDGAVWGWLDDRSVVVPGPDSVRVKALNGTTRYAHPTPQTLLHVWRRSAS	failed
MGLIYKVADQDWEFERIHKLNYKTFVEEIPQHEETKDRVRIDRFHDENTYLICLDEDKLVGMVALRGKRPFSLDYKISNLDFYLQEHGENVYEIRLLSVEREYRNGRALLGLIRFLHRYLLLNGYELALISATTRELPLYEQMGFKSFHTL	failed
MGLLGIVIALGAMIWLAFRGWSILIIAPAAALLAAATAGEPLLAHWTQTFMGTAAGFVAQFFPLFLLGALFGKLMDDSGSVTAIAEWMTRVLGPQRAMLAVVLAGALLTYGGVSLFVAFFVLAPMAHALFRAADIPPRLMPAAIVLGTSTFTMSALPGTPAIQNAIPMPFFSTTPFAAPGLGIVASAIMLTFGLWWLSQRENAARRRGEGYAIAEEEASPDEVAERPLIRELASTAREFDPAEALQGSRSDEPPAAFIALLPLAVVIVVNLLMSFVVLPRVDADYLGLPEWGATTLQAVSGVWSVIVALTAAILCLIALNFRRLPELRDSMGAGAHAAALPVLSVASLVGFGAVVASLPGFGVVRDWVLSIEGGPLVSLAVATNVLSALTGSASGGLTIALDALGGTYLTRAFDLGIDPAILHRVAVMSAGTLDTLPHNGAVVTLLAVCGATHRESYGGIVMVGIVGPMLALAAVIALGSWVGSF	failed
MGLPSSLESYLLLILLSFLNVSTIYSSKPSKEEAVLFGGNFPAFYVIGDSLVDPGNNNHLPTMIRANYPPYGSDFEGGKATGRFSNGKTIADYIAIYYKLPLVPAYLGLSDDRKDTISTGMNYASAGCGIRRLTGKIAGKCLSLSKQVDLFEETIEKHLKTNFKTPYELREHLAHSLFMTVIGVNDYAFFYTRLTDANDFADELLHKFLKKIEKLHKLGARKFFINNIKPLGCYPNIVAKTVPRGSRRTYKPCYKHLQRKA	failed
MGLSSLPGPSEGMLCVILVNTALSISIVKGIVRSFLGIVGISLSPSSSSPSSVTVSSENSSTSESFDFRVCQPESYLEEFRNRTPTLRFESLCRCKKQADNECSVCLSKFQGDSEINKLKCGHLFHKTCLEKWIDYWNITCPLCRTPLVVVPEDHQLSSNVW	failed
MGLTEQKQKHMEQLSDKNGIISALAFDQRGALKRLMAKYQSEEPTVSQIEALKVLVAEELTPYASSMLLDPEYGLPATKVLDDNAGLLLAYEKTGYDTSSTKRLPDCLDIWSAKRIKEEGADAVKFLLYYDVDSSDEVNEEKEAYIERIGSECVAEDIPFFLEILSYDEKITDSSGIEYAKIKPRKVIEAMKVFSNPRFNIDVLKVEVPVNMDYVEGFAQGETAYNKATAAAYFREQDQATLLPYIFLSAGVPAQLFQETLVFAKEAGAKFNGVLCGRATWAGSVKEYVEKGEAGARQWLRTIGFQNIDELNKILQKTATSWKER	not failed
MGLVGLHSGTIDMEFIGVEDHGDEEGKQIAVSVISSGKNADKTEDPDSLIFTGFGGTDMYHGQPCNQKLERLNIPLEAAFRKKSIVRVVRCMKDEKRTNGNIYIYDGTYMITNRWEEEGQNGFIVFKFKLVREPDQKPAFGIWKSIQNWRNGLSIRPGLILEDLSNGAENLKVCLVNEVDKENGPALFRYVTSLIHEVINNIPSMVDRCACGRRSCGSKHVFREKLSVSSSLVISAKKSGNVARFMNHSCSPNVFWQSIAREQNGLWCLYIGFFAMKHIPPLTELRYDYGKSRGGGKKMCLCRTKKCCGSFG	failed
MGMLTDVALKALKPKEKIYKIADRDGIYVRVMPSGAISFRLDYRLNGRRETIYLGRYGRDGISLALAREKCLDAKRAIGEGRSPAIEKQRDKRRLKEAKSFGEFGEKWLTAAPMADSTRAMRRAIFERELLPVWRNRLLTEITPDDLRTHCGAIVERGAPATAIHVRDILKQIYGFAILHGEKVANPADEVGPASIATFVPKDRSLSPSEIRVMLKQLEHVATIPTIRLGMRLYLLTMVRKSELQDAVWDEVDFENAVWTIPKERMKRSKAHNVYLSRQALDIMIALKTCAGNSRYLLPSRYDADAPMSRATFNRITYAVVERAKANGLPLEPFTVHDLRRTGSTLLNELGFNSDWIEKCLAHEDGRSSRGVYNKAEYEVQRRHMMQEWSDIVDAWVGGKKHVPTLIPPSMPILAPDPAL	failed
MGNHKAALTKQVFTFASELYAYGVREVVISPGSRSTPLALAFEAHPNIKTWIHPDERSAAFFAVGLIKGSERPVAILCTSGTAAANYTPAIAESQISRIPLIVLTSDRPHELRSVGAPQAINQVNMFNNYVSYEFDMPIADDSKETINAIYYQMQIASQYLYGPHKGPIHFNLPFRDPLTPDLNATELLTSEMKILPHY	failed
MGNIGSPPKFDEYPNGNEEPRRVLRLNVYFDNPVQNKDGAYDDRGGFWAPVDWWHRDAERWATLFAKGMRVAVRGHLERDDWTDGDGEPHTTYKVDARSVGILPYRLDAVHLSPLEHHHHHH	failed
MGNKITVEVTVYAAIEKVWKYWNEPAHIMKWCQASPEWHVPAAQNDLKAGGTFTTTMAAKDGSMSFDFGGVYDQVKTNDLIEYTIGDGRKVRIVFTHTGDTTNIVESFDPEETNPRELQQSGWQAILNSFKSYTENNLEHHHHHH	not failed
MGNNFAQLKRLINFFRTVILPARISQLILQTFLKWQKDNCMDMGAALAYYALFSLFPICLVMLSIAGRLLGADSNYYLQLISFAQNILPEQPFKVFQQALTNLNQSSFSAGLIGFGILVLTASRIFDALNQSVKKIWSVVHQPKENIGVKHHAFNFIRNKILAFLLVLSTVMVFLLSIFANLAAKIFLTVLAEFGQSIPWVTFDSLGLITTLQTSISYFLITVVIITLFKVLPPVRLQWWDIFPGAILTAATMMALQNAVGSGIIRIGENLQAYGVVGNVMVLLLWIYLIFQVFFIGCEFTFVFTYIFGSRHQKEKPF	failed
MGPDGPPCEISTWKHNSMKQIALSLFVIAASGAYVWDQAGKNPANDMLGEALPADAAEAPTVQPKEPASAAALPVLRTSPAPLDPRFRTRLPIARETTAGIAVPAERPNDPVKQTVVPVAPQPSPAPPAQPVTPAVTDPASSTPSFAVTPAIYIPVPQPRPAYPNAPVRVVRVGMKPAAHGYADGVYTGPTADAYYGIIQIQALVQGGQLTALKVLKYPSDRRTSVNINRQALPMLRDEAISAQSADVDIISGATLTSRAFIQSLRGALKKASSLEHHHHHH	failed
MGPMRTLTVAIDWILIILFVISIILLIYALVKKNKKMAKYAGIAAAIIFILLFIAMRFALTVKPGQ	failed
MGPQRRLRPHEPWPTRSQPGSPAAAESSFLPSVSLLSWKLGDSAMSENRKLAAILAADVVGYSRLAGADEDLTLARLRTLRSDLIDPTIAVHHGRVVKRTGDGALVEFRSVVDAVRCAIEVQNGMVERNHGVPQDRRIEFRIGIHLGDVVEESDGDLMGDGVNIASRLEGVAAAGAICLSEDAYRQVKARLDLSVNDLGSTQLKNIAEPIRVYSLQVGSAGTKLAASPETAVSQPATAAPPKLSIAVLPFTNMSGDAEQDYFADGISEDIITALSKLSQLFVIARNSSFTFKGKNVHVQEVGTKLGVRHVLEGSVRKSGNRVRITAQLIDATTGGHLWAERFDRDLTDIFAVQDDVTQQIVGALAVNLTEGDRQRLAPGQTRHPEAYDCFLRGRELWHRLTRQTNSDARDLLQRAVDLDPNFASAHAFLALTHGLDYLNRWSALPQRSLEQAEEVATLAVARDDSDPVAHWALSLVSLYLRQHDRAISEAERAIVLNPNFAEGHVSLGEALIYSGRSGEALAYFDRASVLNPYFPDIVLHFQALALFQLGRYEEAVELLLQRVSRNPVTDVSRALLAACYGHLGRFEEARATWQEVMRVNPDYSLEYRRKVLPFKNPADFELVVEGLRKAGVVQ	failed
MGQKKYVELSKDIFIFSYLCGGINFTDIANLTQENIVNGRLHYIRQKTGKLIKIGIPQEAMQIIKKYTDESNGYLFPILNVKVHKTALQKQNRIHKIRGKVNDILKTLGKRLGIEANITTYVARHSFASVLKKSGVNIALISEALGHSDLATTQIYLDSFDNEQVDEAMKNLLEHHHHHH	not failed
